The text below walks through data of PMC11445239.

Assay [1] concerns the target activated (Caspase 11-cleaved) mGSDMD-C39A-C57A-mEGFP (mouse). Put plainly: single-molecule TIRF imaging with intensity-based stoichiometry analysis; preformed supported lipid bilayer (Egg PC:PI(4,5)P2 99:1 mol %) on glass incubated with 0.5, 1 or 2 nM protein (pre-cleaved WT or mutants, or full-length at 2 nM) for 1 h, washed 15 times with SLB buffer.
Assay [2] addresses activated (Caspase 11-cleaved) mGSDMD-C192A-mEGFP (mouse). The description is as above.
Assay [3] addresses activated (Caspase 11-cleaved) mGSDMD-mEGFP, mGSDMD(NTD)-mEGFP (mouse). Briefly: single-molecule TIRF imaging with intensity-based stoichiometry analysis; preformed supported lipid bilayer of 100% Egg PC (no PI(4,5)P2) incubated with 2 nM active mGSDMD-mEGFP for 1 h, washed.
The target is the same in assay [4]. Briefly: single-molecule TIRF imaging with intensity-based stoichiometry analysis; preformed supported lipid bilayer (Egg PC:PI(4,5)P2 99:1 mol %) on glass incubated with 0.5, 1 or 2 nM protein (pre-cleaved WT or mutants, or full-length at 2 nM) for 1 h, washed 15 times with SLB buffer.
Assay [5] shares this target. Briefly: single-molecule TIRF imaging with intensity-based stoichiometry analysis; 2 nM mGSDMD-mEGFP with 20 nM Caspase 11 incubated with LUVs (Egg PC:PI(4,5)P2 99:1 mol %) for 1 h (same pattern at 5 and 2 min and after H2O2), proteoliposomes then fused into a supported lipid bilayer on glass; SLB buffer 150 mM NaCl, 10 mM Hepes pH 7.4.

“And” between values parts separate entries of the source, which are not always exact repeats. Identical values can stand only once.

Usually stoichiometry N stands for a count of units in the complex or per binding partner. In the case of “activated (Caspase 11-cleaved) mGSDMD-C39A-C57A-mEGFP (domain or fragment)”, the stoichiometry N in assay [1] was 2 and 3 and 4.
For the substance “activated (Caspase 11-cleaved) mGSDMD-C192A-mEGFP (domain or fragment)”, the stoichiometry N in assay [2] is 3 and 2.
For “activated (Caspase 11-cleaved) mGSDMD-mEGFP, mGSDMD(NTD)-mEGFP (domain or fragment)”, the stoichiometry N in assay [3] was 2; in assay [4], 5 and 6 and 9; in assay [5] it was 2 and 3.
